Measurements taken from patent US7202069B2, “(R)-2-octanol dehydrogenases, methods for producing the enzymes, DNA encoding the enzymes, and methods for producing alcohols using the enzymes” (Daicel Chemical Industries, Ltd., priority 2000, dated 2007).

Test: (R)-2-octanol oxidation activity of the purified enzyme (specific activity, optimum pH, optimum temperature)
Assay type: biochemical, Pichia finlandica
Details: after Superdex 200 gel filtration
Protocol: On the other hand, oxidation activity on (R)-2-octanol can be measured as follows. The activity can be validated by incubating at 30° C. the reaction mixture containing Tris-HCl buffer (pH 8.5, 50 mM), 2.5 mM NAD^+, 5 mM (R)-2-octanol, and the enzyme and by measuring increase of absorbance at 340 nm accompanying generation of NADH. 1 U was defined as the amount of the enzyme catalyzing generation of 1 μmol of NADH for 1 minute.
The highest specific activity of the purified enzyme was about 91 U/mg-protein which is the activity of oxidizing (R)-2-octanol.
We examined (R)-2-octanol dehydrogenase activity of the enzyme obtained from Example 3 changing pH by using phosphate buffer (KPB), Tris-HCl buffer, Glycine buffer. […] As a result, the optimum pH of the enzyme was from 8.0 to 11.0.
We examined (R)-2-octanol oxidation activity of the enzyme obtained from Example 3 changing only temperature in the standard reaction conditions. […] As a result, the optimum temperature of the enzyme was from 45 to 55.

B1: (R)-2-octanol dehydrogenase from Pichia finlandica: NAD+-dependent (R)-2-octanol dehydrogenase purified from Pichia finlandica DSM 70280; amino acid sequence SEQ ID NO:2 (protein, listed as Pichia finlandica)
chain: MSYNFHNKVAVVTGALSGIGLSVAKKFLQLGAKVTISDVSGEKKYHETVVALKAQNLNTDNLHYVQADSSKEEDNKKLISETLATFGGLDIVCANAGIGKFAPTHETPFDVWKKVIAVNLNGVFLLDKLAINYWLEKSKPGVIVNMGSVHSFVAAPGLAHYGAAKGGVKLLTQTLALEYASHGIRVNSVNPGYISTPLIDEVPKERLDKLVSLHPIGRLGRPEEVADAVAFLCSQEATFINGVSLPVDGGYTAQ
- highest specific activity of the purified enzyme, oxidizing (R)-2-octanol: about 91 U/mg-protein
